In the nanobody polyreactivity screen of Harvey et al. (2022):

Experiment: yeast display, Sf9 membrane polyspecificity reagent, FACS + sequencing; frameworks hold sequencing errors
Outline: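 Galactose-induced (36–48 hours) yeast carrying a synthetic nanobody display library were exposed to 10% biotinylated, detergent-solubilized Sf9 membrane reagent at 4 °C for 1 hour. FACS followed streptavidin microbead enrichment, using low and high (top ~1%) gates for expression (anti-HA) and reagent binding (streptavidin). Colony PCR, MiSeq 2 × 250 sequencing and CDR-length filtering followed. Labels for polyreactivity reflect the gate of origin.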

Sequence | polyreactivity (PSR sort gate)
QVQLVESGGGLVQAGGSLRLSCAASGSTFGGYVMGWYRQAPGKERELVATITQGDGSTYYADSVKGRFTISRDNAKNTVYLQMNSLKPEDTAVYYCAAYGWYDLYYWEYDYWGQGTQVTVSS | high polyreactivity
QVQLVESGGGLVQAGGSLRLSCAASGFTFSYNAMGWYRQAPGKERELVAVINSSGGRTYYADSVKGRFTISRDNAKNTVYLQMNSLKPEDTAVYYCAARPVLAKYYYWGQGTQVTVSS | high polyreactivity
QVQLVESGGGLVQAGGSLRLSCAASGRTFKSYAMGWYRQAPGKERELVAAISKRGGSTYYADSVKGRFTISRDNAKNTVYLQMNSLKPADTAVYYCNKLYLKPGRYYYWGQGTQVTVSS | high polyreactivity
QVQLVESGGGLVQAGGSLRLSCAASGFIFSSYAMGWYRQAPGKERELVAAITSGGSTYYADSVKGRFTISRDNAKNTVYLQMNSLKPEDTAVYYCAADHWDGQYWFDYWGQGTQVTVSS | low polyreactivity
QVQLVESGGGLVQAGGSLRLSCAASGSIFDDYAMGWYRQAPGKERELVAAISWSGGRTYYADSVKGRFTISRDNAKTTVYLQMNSLKPEDTAVYDCAATTGVRSRRYYYWGQGTQVTVSS | low polyreactivity
QVQLVESGGGLVQAGGSLRLSCAASGRIFVSYAMGWYRQAPGKERELVADMSWSGSITYYADSVKGRFTISRDNAKNTVYLQMNSLKPEDTAVYYCAKKSIYDYSTTYPEYDYWGQGTQVTVSS | low polyreactivity
QVQLVESGGGLVQAGGSLRLSCAASGFIFIRNAMGWYRQAPGKQRELVATIRYSGGNTYYADSVKGRFTISRDNAKNTVYLQMNSLNPEDTAVYYCAAGSGYWGRSPTRCGQGGYWGQGTQVTVSS | high polyreactivity
QVQLVESGGGLVQAGGSLRLSCAASGLTFSDYAMGWYRQATGKEREFVAAITRNGGSTRYADSVKGRFTISRDNAKNTVYLQMNSLKPEDTAVYYCAADWSYEYGYWGQGTQVTVSS | low polyreactivity
QVQLVESGGGLVQAGGSLRLSCAASGSTFVRNAMGWYRQAPGKERELVAGISTGDNTYYADSVKGRFTISRDNAKNTVYLQMNSLKPEDTAVDYCNATKDFSFGLDYWGQGTQVTVSS | low polyreactivity
HVQLVESGGGLVQAGGSLRISCAASGLIFVFYAMGWYRQAPGKERELVAAISTSGDRTYYADSVKGRFTISRDNAKNTVYLQMISLKPEDTAVYFCNARRLGYRSGHPGYYWGQGTQVTVSS | high polyreactivity
QVQLVESGGGLVQAGGSLRLSCAASGSTFVPNAMGWYRQAPGKERELVATINYADSVKGRFTISRDNAKNTVYLQMNSLKPEDTAVYYCATETAVYLVWGTALDYWGQGTQVTVSS | low polyreactivity
QVQLVESGGGLVQAGGSLRLSCAASGFTFSNYAMGWYRQAPGKERELVAAISFRTGRTYYADSVKGRFTISRDNAKNTVYLQMNSLKPEDTAVYYCAAVVQSSEPVEYDYWGQGTQVTVSS | high polyreactivity
QVQLVESGGGLVQAGGSLRLSCAATGITFYINAMAWYIQAPGKESEFVAAIDFNTGDTYYADSVKGRFTISRDTSKNTVYLEMNRLKPEDTAVYYCAADVGYWYGYYYIYDFWAQGTQVTVSS | high polyreactivity
QVQLVESGGGLVQAGGILRLNCAASGFIFRRYAMGWSRQAPGKERELVAAISSGGTSTYYADSVKGRFTISRDNAKYTVYLQKNSLKPEDTAVSYCNVDTDPYYWGGDYYWGQGTQVTVSS | high polyreactivity
QVQLVESGGGLVQAGGSLRLSCAASGSTFYYYTMGWSRQAPGKERELVAAITYSGGSTRYADSVKGRFTISRDNAKNTVYLQMNSLKPEDTAVYYCAAELTEWTNGFDYWGQGTQVTVSS | high polyreactivity
QVQLVESGGGLVQAGGSLRLSCAASGSTYVYYAMGWYRQAPGKERELVAAISSSGGSTYYADSVKGRFTISRDNAKNTVYLQMNILKPEDTAVYYCNRYSSYIPYPYNYWGQGTQVTVSS | high polyreactivity
QVQLVESGGGLVQAGGSLRLSCAASGSIFRYNAMGWYRQAPGKERELVAAISTSGGSTYYADSVKGRFTISRDNAKNTVYLQMNSLKPEDTAVYYCNKLRNSDSRGIVWYGYWGQGTQVTVSS | high polyreactivity
QVQLVESGGGLVQAGGSLRLSCAASGSTFDYNAMVWYRQAPGKESDLVVAITWGGDSTYADSVKGRFTISRDNAKNTVYLQMNSLKPEDTAVYYCAAEQDPWTSRYVFFASRYDYWGQGTQVTVSS | low polyreactivity
QVQLVESGGGLVQAGGSLRLSCAASGSTFKYYSIGWYRQAPGKERELVASITGRTVGTYYADSVKGRFTISRDIAKNTVYLQMNSLKPEDTAVFYCATDLYWDYPDKGYTVSWWYGYWGQGTQVTVSS | low polyreactivity
QVQLVESGGGLVQAGGSLRLSCAASGSTFDPYAMGWYRQAPGKERELVAGISASGGSTYADSVKGRFTISRDNAKNTVYLQMNSLKPEDTACYYCAADTYLIRGPPDEEYWGQGTQVTVSS | low polyreactivity
QVQLVESGGGLVQAGGSLRLSCAASGSIFKKYAMGWYRQAPGKERELVAAISKSGGSTYYADSVKGRFTISRDNAKNTVYLQMNSLKPEDTAVYYCAAAAGGSAYWDYDYWGQGTQVTVSS | low polyreactivity
QVQLVESGGGIVQAGGSLRLSCAASGRIYRYNAMGWYRQAPGKERELVASINQRGGSTYYADSVKGRFTISRDNAKNTVYLQMNSLKPEDTAVYYCAQSFNSGYYYWGQGTQVTVSS | high polyreactivity

Sequence | polyreactivity (PSR sort gate)
QVQLVETRGGLVQAGGSLRLTCAASGRTFEGYAMGWYRQAPGKEREFVAAITDGDSTYYADSVKGRFTISRDNAKNTVYLQMNSLKPEDTAVYYCAADRQTWYWYTAYLKYDYWGQGSQVTVSS | low polyreactivity
QVQLVESGGGLVQAGGSLRLSCAASGSIFALNVMGWYRQAPGKEREFVAAISVRSGSTYYADSVKGRFTISRDNAKNTVYLQMNSLKPEDTAVYYCAARTSRFWRGGGLDYWGQGTQVTVSS | high polyreactivity
QVQLQESGGGLVQAGGSLRLSCAASGNISVTGFMGWYRQAPVKERELVASIGIGGTTYYADSVKGRFSISRDNAKNTVYLQMNSLKPEDTAVYYCAARYLYYAYSYWGQGSQVTVSS | low polyreactivity
QVQLVESGGGLVQAGGSLRLSCAASGFIFGDNAMGWYRQAPGKERELVAGITVSDGSTYYADSVKGRFTISRDNAKNTVYLQMNSLKPEDTAVYYCNAAGRYKPGAPYDYWGQGTQVTVSS | low polyreactivity
QLQLVESRRGLVHAGGSLRLSSDASGRIFLYYAMGWYRQAPVKERELVARITSSGSTYYADSVKGLFTISRDNAKNTVYLQMNSLKPEDTAVYYCAADWYWGGIVDSWGQGTQVTVSS | high polyreactivity
QVQLVESGGGLVQAGGSLRLSCAASGRTFPYYTMGWYRQAPGKERELVAAITSGGSTHYADSVKGRFTISRDNAKNTVYLQMNSLKPEDTAVYYCAADLFYHSYGYEYWGQGTQVTVSS | low polyreactivity
QVQLVESGGGLVQAGGSLRLSCAASGRILWYYTMGWYRQAPGKERELVAAISSGGRTHYADSVKGRFTISRDNAKNTVYLQMNSLKPVDTAVYYCAAKYGWGRFNYDYWGQGTQVTVSS | high polyreactivity
QLQLVESGGGLVQAGGSLRLSCAASGRNFVHNAMGWYRPAPGKEREFVAAISLRGGSTYYADSVKGRFTTSRDNAKNSVYLQMNSLKPEDTAVYYCAAVPAHFYGYDYWGQGTQVTVSS | low polyreactivity
QVQLVESGGGLVQAGGSLRLSCAASGRILYSYAMGWYRQAPGKERELVASISLSGGRTYADSVKGRFTISRDNAKNTVYLQMNSLKPEDTAVYYCNASIRTSRYLWQFDYWGQGTQVTVSS | high polyreactivity
QVQLVESGGGLVQAGGSLRLSCAASGFIFAYYAMGWYRQAPGKERELVAGNSGDGSTNYADSVKGRFTISRDNAKNTVYLQMNSLKPEDTAVYYCAAATGVGLEYDYWGQGTQVTVSS | low polyreactivity
QVQLVESGGGLVQAGGSLRLSCAASGRTFKYNAMAWYRQAPGTERELVADISYSGDSTYYADSVKGRFTISRDNAKNTVYLQMNSLKPEDTAVYYCNAVLTHGRLWRAHGYWGQGTQVTVSS | high polyreactivity
QVQLVESGGGLVQAGGSLRLSCAASGSTFRKYVMGWYRQAPGKERELDAGITSRGGSTYYADSVKGRFTISRDNAKNTVYLQMNSLKPEDSAVYYCAKRAYGTALYRGYGYWGQGTQVPVSS | low polyreactivity
QVQLVESGGGLVQAGGSLRLSCAASGFIFGYNTMGWYRQAPGKERELVAAISWSGGSTYYADSVKGRFTISRVNAKNSVYLQMNSLKPEDTAVYYCATVSRSYSELDYWGQGTQVTVSS | low polyreactivity
QVQLQVRGGDLVQAGGSLRLSCAASGTIYRLTTMGWYRQAPGKEREFVAAITDGGNTNYADSVKGRFTISRDNAKNTVYLQMICLKPEDTAVYYCAVLFSDDAYYAYWGQGTQVTVSS | low polyreactivity
QVQLVESGGGLVQAGGSLRLSCAASGSIFYYYAMGWYRQAPGKERELVAAISTGGGSTYYADSVKGRFTISRDNAKNTVYLQINSLKPEDTAVYYCAAPWGYYSSFTDDYWGHGTQVTVSS | low polyreactivity
QVQLVESGGGLVQAGGSLRLSCAASGRIFVKYAMGLYRQAPGKERELVAAIRSGGSTYYADSVKRRFTISRDNAKYTVYLQMNSLKPEDTAVYYCAADRNKHHYYNEPYDYWGQGTQVTVSS | low polyreactivity
QVHLVESGGGLVQAGGSLRLSCAASGSIFPFNAMGWYRQAPGKERELVAAIRWSDGRTYYADSVKGRFTISRDNAKNTVYLQMNSLKPEDTAVYYCAAKSYWGQGTQVTVSS | high polyreactivity
QVQLVESGGGLVQAGGSLRLSCAASGGTIVPNAMGWYRQAPGTERELVATLTSSDTTNYADSVKGRFTISRDNAKNTVYLQMNSLKPEDTAVYYSAASFKLGYWDYYYWGQGTQVTVSS | low polyreactivity
QVQLVVSGGGLVQAGGSLRLSCAASGRIFLWNAMGWYRQAPGKERDLVAAISSGGGTNYADSVKGRFTISRDNAKNSVYLQMNSLKPEDTAVYYCAARRTYRFGWGQGTQVTVSS | high polyreactivity
QVQLVESGGGLVQAGGSLRLSCAASGSTFDYNAMGWYRQAPGKERELVAAISSTGGSTYYADSVKGRFTISRDNAKNTVYLQMNSLKPEDTAVYFCARYYAIVSGYYDDGYWGQGTQVTVSS | high polyreactivity
QVQLVESGGGLVQAGGSLRLSCAASGRIFRYNAMGWYRQAPGKERELVAAITRSGGRTYYADSVKGRFTISRDNAKYTVYLQMNSLKPEDTAVYYCAADKYPSSPYVGDVDYWGQGTQVTVSS | high polyreactivity
